Measured values: the supplement of paper PMC7125110
± gives the standard error. This sample holds only a part of the variants without activity.

B1: glmS ribozyme (parent)
chain: AUAAAAGCGCCAGAACUACAGAAAUGUAGUUGACGAGGAGGAGGUUUAUCGAAUUUUCGGCGGAUGCCUCCAAA

How the values were obtained:
Details in all cases: with glucosamine-6-phosphate
glucosamine-6-phosphate [1] = variants of: B1; assay: self-cleavage kobs at 640 uM GlcN6P; higher = faster cleavage; RNA array
Method in brief: (§1)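 E. coli RNA polymerase transcribed barcoded ribozyme variants in situ on sequenced MiSeq chips, which were tracked via a hybridised Cy3 probe at 37 °C. Tiles were imaged over ~14 h after glucosamine-6-phosphate (40 μM to 10 mM) in HEPES/KCl/Mg(OAc)2 buffer was flowed in. Normalised per-tile medians were fit to one- or two-exponential decays for kobs, and kcat and KM came from weighted Michaelis–Menten fits.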

glucosamine-6-phosphate [2] = variants of: B1; assay: self-cleavage kobs at 2500 uM GlcN6P; higher = faster cleavage; RNA array
Method in brief: as §1

glucosamine-6-phosphate [3] = variants of: B1; assay: self-cleavage kobs at 10000 uM GlcN6P; higher = faster cleavage; RNA array
Method in brief: as §1

Variant	self-cleavage kobs at 640 uM GlcN6P (glucosamine-6-phosphate [1]) [s⁻¹]	self-cleavage kobs at 2500 uM GlcN6P (glucosamine-6-phosphate [2]) [s⁻¹]	self-cleavage kobs at 10000 uM GlcN6P (glucosamine-6-phosphate [3]) [s⁻¹]
A33G A36C U54C	< 1e-05	< 1e-05	< 1e-05
G29U A48U C61U	< 1e-05	–	–
G29C C70G	8e-05 ± 1.4e-05	2.33e-05 ± 8.6e-06	4e-05 ± 1.4e-05
A15U G35U U46A	< 1e-05	< 1e-05	–
A33G G38U U65A C70G	7.69e-05 ± 2.1e-05	–	–
U31G G38U A53G C68A C71A	0.000204 ± 7.6e-05	–	–
G7A U31G G41U C68U	< 1e-05	–	–
G38A C61A G62C	< 1e-05	< 1e-05	< 1e-05
G7C A42U	< 1e-05	–	–
G32A G40U A48U	< 1e-05	–	–
A39U G41U U56G	6.4e-05 ± 1.9e-05	0.000106 ± 2.3e-05	–
G44A A48U U56G	< 1e-05	< 1e-05	–
C16A A39U U54C	0.000107 ± 2.9e-05	0.000434 ± 9.7e-05	0.000811 ± 0.00017
A33G G51A U55C C68A	< 1e-05	–	–
C34G G44A U56C U57C	< 1e-05	–	–
G7C C34A A42C C71U	< 1e-05	–	–
G40U U65G	0.000417 ± 0.00014	0.00108 ± 0.00028	0.0019 ± 0.00044
A14G G35U G37C U47C	< 1e-05	–	–
A14C C16U G44U U69G	< 1e-05	–	–
G32C G41A U46G C71U	< 1e-05	< 1e-05	–
G9U G29A U46A G51U C67U	< 1e-05	< 1e-05	–
G13U G37C U56C C67A C71U	< 1e-05	–	–

Variant	self-cleavage kobs at 640 uM GlcN6P (glucosamine-6-phosphate [1]) [s⁻¹]	self-cleavage kobs at 2500 uM GlcN6P (glucosamine-6-phosphate [2]) [s⁻¹]	self-cleavage kobs at 10000 uM GlcN6P (glucosamine-6-phosphate [3]) [s⁻¹]
A12U U46C A52G A53G	0.000183 ± 4.4e-05	0.00036 ± 8.9e-05	–
G7U C50U U65A U69C C71U	6.46e-05 ± 2.1e-05	–	–
U49C C61A	< 1e-05	–	–
C16G C34G A42C G43A	< 1e-05	–	–
G7A A15G U30C A48G U57A	< 1e-05	< 1e-05	–
A12U A53C C67U	0.00253 ± 0.0006	–	–
A6G G9U C58A	< 1e-05	< 1e-05	< 1e-05
U30A A48C C58U G59C	< 1e-05	–	–
U30G G37U U55C C58G	< 1e-05	–	–
A14U A15G G37A	0.000119 ± 2.8e-05	0.000224 ± 4.9e-05	–
G29U A36U A39G G60A	< 1e-05	–	–
C10U G13C A15U C16U C50G	0.000145 ± 6.3e-05	0.000146 ± 5.6e-05	–
C8U G9U A15C G44U	< 1e-05	< 1e-05	–
A12C G44U	9.03e-05 ± 1.7e-05	8.38e-05 ± 2.6e-05	0.000382 ± 5.4e-05
G40A U57A C71U	6.1e-05 ± 2.3e-05	0.000149 ± 3.4e-05	–
G32C G35U U46A C68G	< 1e-05	–	–
G37C U45G G63U	< 1e-05	< 1e-05	–
A6C A12C A39C C67U	< 1e-05	< 1e-05	< 1e-05
C16U G60U C68A	< 1e-05	–	–
G7C U46C	< 1e-05	< 1e-05	< 1e-05
U47G U57G C61G C67U	0.000132 ± 5.3e-05	0.000254 ± 6.6e-05	–
A6G A39U C70A	< 1e-05	–	–

Variant	self-cleavage kobs at 640 uM GlcN6P (glucosamine-6-phosphate [1]) [s⁻¹]	self-cleavage kobs at 2500 uM GlcN6P (glucosamine-6-phosphate [2]) [s⁻¹]	self-cleavage kobs at 10000 uM GlcN6P (glucosamine-6-phosphate [3]) [s⁻¹]
G29C A36C C61A	< 1e-05	< 1e-05	–
G9U C61A C70G	4.55e-05 ± 2.1e-05	–	–
A6G C58U U69A	0.000521 ± 0.00019	–	–
C8U G32U C68A	< 1e-05	–	–
A6G C16A G35U A48U	< 1e-05	< 1e-05	–
G9C A12C	< 1e-05	< 1e-05	< 1e-05
A36C U49C	< 1e-05	–	< 1e-05
A12U U65C C70U	0.000322 ± 8.6e-05	–	–
A14U G29A U47G C50U A53C C70G	0.00022 ± 4.5e-05	0.000165 ± 3.4e-05	–
A12U A48G U49G	6.79e-05 ± 3.2e-05	–	–
U31G A36C U49G	8.9e-05 ± 1.7e-05	0.000257 ± 4.5e-05	0.000385 ± 6.8e-05
G7C C8G C10U C70G	0.000355 ± 0.0001	–	–
G7U A12G A48U G63U	< 1e-05	–	–
G13U A64G U65G	8.37e-05 ± 3e-05	5.07e-05 ± 1.7e-05	–
C16G A48U C50G C70A	5.34e-05 ± 2.6e-05	–	–
C8G G32A U57G C67U	< 1e-05	–	–
U31A C58U U69G	0.000109 ± 4.2e-05	7.72e-05 ± 2.2e-05	–
A6G C61G C71G	7.45e-05 ± 2.4e-05	–	–
G13U G37U G40A U69G	< 1e-05	< 1e-05	< 1e-05
G37A U49A G66A	< 1e-05	–	–
G7U G9C G29C A39G U46A A52U U55C C67G C70U	< 1e-05	< 1e-05	–
G41A U65G	< 1e-05	–	–

Variant	self-cleavage kobs at 640 uM GlcN6P (glucosamine-6-phosphate [1]) [s⁻¹]	self-cleavage kobs at 2500 uM GlcN6P (glucosamine-6-phosphate [2]) [s⁻¹]	self-cleavage kobs at 10000 uM GlcN6P (glucosamine-6-phosphate [3]) [s⁻¹]
G13U G29C G60A U69C C70U	< 1e-05	–	–
U46C G60U	< 1e-05	< 1e-05	–
G35A C58A	< 1e-05	< 1e-05	–
A12C G32A U54G	2.31e-05 ± 1.1e-05	3.03e-05 ± 9.9e-06	0.00014 ± 2.3e-05
G13C A33G G40U U49G G63A	< 1e-05	–	–
A15U A36G G41U U47A	< 1e-05	–	–
A12C G32C U57C C58U	< 1e-05	< 1e-05	–
G29U C34U	< 1e-05	–	–
U46A C68G C71G	0.00075 ± 0.00031	–	–
C8U C58U	< 1e-05	–	–
A14G A15G C34G U69A	0.000303 ± 0.00014	–	–
A6U A15C G44U	< 1e-05	< 1e-05	–
G13C A39C C61A C70U	< 1e-05	–	–
A36C G44U C61U C67U	< 1e-05	< 1e-05	–
C8G C58A U65G C71A	< 1e-05	–	–
G35U G59U G60C G62U	< 1e-05	–	–
A15C G32U U55G C58G U69G	0.000909 ± 0.00036	–	–
A15U U45A G66U	4.46e-05 ± 1.6e-05	–	–
G9U C58G G59C	< 1e-05	< 1e-05	–
C16A U56G C58G G62C	< 1e-05	–	–
A6C G41A C68A U69C	< 1e-05	–	< 1e-05
C11A A39U U45C G51C C61U	< 1e-05	< 1e-05	–

Variant	self-cleavage kobs at 640 uM GlcN6P (glucosamine-6-phosphate [1]) [s⁻¹]	self-cleavage kobs at 2500 uM GlcN6P (glucosamine-6-phosphate [2]) [s⁻¹]	self-cleavage kobs at 10000 uM GlcN6P (glucosamine-6-phosphate [3]) [s⁻¹]
C19A A48U	6.44e-05 ± 2.3e-05	–	–
A15G A36U G41U C70U	< 1e-05	< 1e-05	–
G7A U31C A52G	< 1e-05	–	–
C8U U31G G35U G44A C70U	< 1e-05	< 1e-05	–
G37A G40U G43C	< 1e-05	–	–
G13A A14C U30G	4.76e-05 ± 1.8e-05	–	–
C34G C61G G62C	< 1e-05	–	–
C10A C16U G35A	< 1e-05	< 1e-05	–
A14U A15C A33U U49C C50G U69A	0.0012 ± 0.00039	0.000218 ± 9.1e-05	–
G7U G29U A48C	< 1e-05	< 1e-05	< 1e-05
U47A G60C U69C	0.00785 ± 0.0036	–	–
A15G A42C A64C U69C	< 1e-05	–	–
G9U U56A G63U A64U	< 1e-05	–	–
G7A C8A U65C	< 1e-05	< 1e-05	–
A12G U45G A52U C61G	< 1e-05	–	–
A6G U47G C61A A64U	< 1e-05	–	–
C10G A53U U57A	< 1e-05	–	–
A15U C16A C71U	0.000111 ± 3.7e-05	0.000598 ± 0.00019	–
U31A U56G C58G	9.04e-05 ± 1.6e-05	0.000252 ± 5e-05	–
A6G A53G C61A	< 1e-05	< 1e-05	–
C10U A12C G40A	< 1e-05	< 1e-05	–
G9U C10G G13C A48C C50U	< 1e-05	< 1e-05	–

Variant	self-cleavage kobs at 640 uM GlcN6P (glucosamine-6-phosphate [1]) [s⁻¹]	self-cleavage kobs at 2500 uM GlcN6P (glucosamine-6-phosphate [2]) [s⁻¹]	self-cleavage kobs at 10000 uM GlcN6P (glucosamine-6-phosphate [3]) [s⁻¹]
G35A G51A C58U	< 1e-05	–	–
U55G C67A C68G	8.64e-05 ± 2.7e-05	7.14e-05 ± 1.6e-05	–
G35U G41A A64G	< 1e-05	< 1e-05	–
A14C A36C G51U C61A G63U C67U	8.43e-05 ± 3.9e-05	5.16e-05 ± 1.9e-05	–
C8U U30A A39U	< 1e-05	< 1e-05	–
C10U U46A U49A G62A	< 1e-05	< 1e-05	–
C8U A15C G32U	< 1e-05	< 1e-05	–
U31G G35C G51U	< 1e-05	–	–
U31G G32U A53U A64G	0.000197 ± 6.1e-05	–	–
G41A G51U C68U C70G	< 1e-05	< 1e-05	–
A6G G43A C68A	< 1e-05	–	–
G7U U47G A53U	< 1e-05	< 1e-05	–
G60U G66C C70U	< 1e-05	–	–
G29A G32U G40U G44U	< 1e-05	< 1e-05	–
U30C U45G U56G C68G	< 1e-05	< 1e-05	–
G43U A52C G66C C68G	< 1e-05	< 1e-05	–
C8A C11A G37U G41C A53C G63C	< 1e-05	< 1e-05	–
G29A G38A U65G	< 1e-05	< 1e-05	–
G35U A36G C61A	< 1e-05	–	–
U47G G63U C68G	6.95e-05 ± 3.1e-05	–	–
A14G C16A G40A	0.000169 ± 3e-05	0.00023 ± 6.8e-05	–
U31G G38U U69A C71U	0.000772 ± 0.0003	–	–
